From publication PMC7263513

Legend:
[1] = target: SARS-CoV-2 receptor binding domain (RBD) (Severe acute respiratory syndrome coronavirus 2 (2019-nCoV) (SARS-CoV-2).) (UniProt P0DTC2)
[2] = target: SARS-CoV-2 receptor binding domain (RBD) (SARS-CoV-2) (UniProt P0DTC2)

| Substance | IC50 of neutralisation of SARS-CoV-2 pseudovirus (293T (ACE2) cells) [1] | IC50 of neutralisation of SARS-CoV-2 pseudovirus (293T (ACE2) cells) [2] |
| --- | --- | --- |
| C002 (antibody) | 0.00888 µg/mL | – |
| C110 (antibody) | 0.0184 µg/mL | – |
| C104 (antibody) | 0.0233 µg/mL | – |
| C105 (antibody) | 0.0261 µg/mL | – |
| C144 (antibody) | – | 0.00691 µg/mL |
